Measured values taken from IntAct's records for PubMed 24075010.

B1: Myocyte-specific enhancer factor 2 (Drosophila melanogaster (Fruit fly)), P40791 (parent)
chain: MGRKKIQISRITDERNRQVTFNKRKFGVMKKAYELSVLCDCEIALIIFSSSNKLYQYASTDMDRVLLKYTEYNEPHESLTNKNIIEKENKNGVMSPDSPEAETDYTLTPRTEAKYNKIDEEFQNMMQRNQMAIGGAGAPRQLPNSSYTLPVSVPVPGSYGDNLLQASPQMSHTNISPRPSSSETDSGGMSLIIYPSGSMLEMSNGYPHSHSPLVGSPSPGPSPGIAHHLSIKQQSPGSQNGRASNLRVVIPPTIAPIPPNMSAPDDVGYADQRQSQTSLNTPVVTLQTPIPALTSYSFGAQDFSSSGVMNSADIMSLNTWHQGLVPHSSLSHLAVSNSTPPPATSPVSIKVKAEPQSPPRDLSASGHQQNSNGSTGSGGSSSSTSSNASGGAGGGGAVSAANVITHLNNVSVLAGGPSGQGGGGGGGGSNGNVEQATNLSVLSHAQQHHLGMPNSRPSSTGHITPTPGHDKYEGYPYRALMGHNPRWNLNFAGAPSSDQDVRLAAVAVQQQQQQPHQQQQLGDYDAPNHKRPRISGGWGT
partner: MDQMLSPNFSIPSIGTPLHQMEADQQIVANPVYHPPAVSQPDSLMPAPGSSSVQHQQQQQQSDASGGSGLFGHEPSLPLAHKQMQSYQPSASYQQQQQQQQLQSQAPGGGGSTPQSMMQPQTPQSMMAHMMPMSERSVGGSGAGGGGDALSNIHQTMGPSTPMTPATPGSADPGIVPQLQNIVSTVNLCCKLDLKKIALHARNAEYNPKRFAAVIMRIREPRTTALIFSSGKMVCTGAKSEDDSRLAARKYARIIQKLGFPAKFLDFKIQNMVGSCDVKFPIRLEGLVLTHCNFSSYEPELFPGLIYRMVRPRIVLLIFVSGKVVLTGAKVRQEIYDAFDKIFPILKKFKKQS

Variants of: B1
Conditions: with tbp_drome Tbp

| effect of a mutation on the interaction | Variant |
| --- | --- |
| increasing interaction strength | T20A |
| decreasing interaction strength | T20E |
